Assay results: patent publication US20230250170A1

What was measured:
[1] = target: hNPR1-MMH in the presence of hANP (receptor-ligand complex) (human) (UniProt P01160); assay: SPR Biacore 8K, mAb captured via anti-hFc, 37 C, 10-fold hANP present
[2] = target: monkey NPR1 extracellular domain expressed with a C-terminal myc-myc-hexahistidine (monkey); assay: SPR Biacore 8K, mAb captured via anti-hFc, 37 C
[3] = target: dog NPR1 extracellular domain expressed with a C-terminal myc-myc-hexahistidine (dog); assay: SPR Biacore 8K, mAb captured via anti-hFc, 37 C
[4] = target: pig NPR1 extracellular domain expressed with a C-terminal myc-myc-hexahistidine (pig); assay: SPR Biacore 8K, mAb captured via anti-hFc, 37 C
[5] = target: mouse NPR1 extracellular domain expressed with a C-terminal myc-myc-hexahistidine (mouse) (UniProt P18293); assay: SPR Biacore 8K, mAb captured via anti-hFc, 37 C
[6] = target: human NPR1 extracellular domain expressed with a C-terminal myc-myc-hexahistidine (human) (UniProt P16066); assay: SPR Biacore 8K, mAb captured via anti-hFc, 37 C
[7] = target: human NPR1 on HEK293/hNPR1 cells (human) (UniProt P16066); assay: cell-based or functional assay
[8] = target: monkey NPR1 extracellular domain expressed with a C-terminal myc-myc-hexahistidine (monkey); assay: SPR Biacore 4000, mAb captured via anti-hFc, 37 C, binding pH 7.4, dissociation pH 7.4
[9] = target: human NPR1 extracellular domain expressed with a C-terminal myc-myc-hexahistidine (human) (UniProt P16066); assay: as above
[10] = target: monkey NPR1 extracellular domain expressed with a C-terminal myc-myc-hexahistidine (monkey); assay: SPR Biacore 8K, mAb captured via anti-hFc, 25 C
[11] = target: dog NPR1 extracellular domain expressed with a C-terminal myc-myc-hexahistidine (dog); assay: SPR Biacore 8K, mAb captured via anti-hFc, 25 C
[12] = target: pig NPR1 extracellular domain expressed with a C-terminal myc-myc-hexahistidine (pig); assay: SPR Biacore 8K, mAb captured via anti-hFc, 25 C
[13] = target: mouse NPR1 extracellular domain expressed with a C-terminal myc-myc-hexahistidine (mouse) (UniProt P18293); assay: SPR Biacore 8K, mAb captured via anti-hFc, 25 C
[14] = target: human NPR1 extracellular domain expressed with a C-terminal myc-myc-hexahistidine (human) (UniProt P16066); assay: SPR Biacore 8K, mAb captured via anti-hFc, 25 C
[15] = target: hNPR1-MMH in the presence of hANP (receptor-ligand complex) (human) (UniProt P01160); assay: SPR Biacore 8K, mAb captured via anti-hFc, 25 C, 10-fold hANP present
[16] = target: monkey NPR1 extracellular domain expressed with a C-terminal myc-myc-hexahistidine (monkey); assay: SPR Biacore 4000, mAb captured via anti-hFc, 37 C, binding pH 7.4, dissociation pH 6.0
[17] = target: human NPR1 extracellular domain expressed with a C-terminal myc-myc-hexahistidine (human) (UniProt P16066); assay: as above

human NPR1 on HEK293/hNPR1 cells (human), sequence (P16066 33-1061): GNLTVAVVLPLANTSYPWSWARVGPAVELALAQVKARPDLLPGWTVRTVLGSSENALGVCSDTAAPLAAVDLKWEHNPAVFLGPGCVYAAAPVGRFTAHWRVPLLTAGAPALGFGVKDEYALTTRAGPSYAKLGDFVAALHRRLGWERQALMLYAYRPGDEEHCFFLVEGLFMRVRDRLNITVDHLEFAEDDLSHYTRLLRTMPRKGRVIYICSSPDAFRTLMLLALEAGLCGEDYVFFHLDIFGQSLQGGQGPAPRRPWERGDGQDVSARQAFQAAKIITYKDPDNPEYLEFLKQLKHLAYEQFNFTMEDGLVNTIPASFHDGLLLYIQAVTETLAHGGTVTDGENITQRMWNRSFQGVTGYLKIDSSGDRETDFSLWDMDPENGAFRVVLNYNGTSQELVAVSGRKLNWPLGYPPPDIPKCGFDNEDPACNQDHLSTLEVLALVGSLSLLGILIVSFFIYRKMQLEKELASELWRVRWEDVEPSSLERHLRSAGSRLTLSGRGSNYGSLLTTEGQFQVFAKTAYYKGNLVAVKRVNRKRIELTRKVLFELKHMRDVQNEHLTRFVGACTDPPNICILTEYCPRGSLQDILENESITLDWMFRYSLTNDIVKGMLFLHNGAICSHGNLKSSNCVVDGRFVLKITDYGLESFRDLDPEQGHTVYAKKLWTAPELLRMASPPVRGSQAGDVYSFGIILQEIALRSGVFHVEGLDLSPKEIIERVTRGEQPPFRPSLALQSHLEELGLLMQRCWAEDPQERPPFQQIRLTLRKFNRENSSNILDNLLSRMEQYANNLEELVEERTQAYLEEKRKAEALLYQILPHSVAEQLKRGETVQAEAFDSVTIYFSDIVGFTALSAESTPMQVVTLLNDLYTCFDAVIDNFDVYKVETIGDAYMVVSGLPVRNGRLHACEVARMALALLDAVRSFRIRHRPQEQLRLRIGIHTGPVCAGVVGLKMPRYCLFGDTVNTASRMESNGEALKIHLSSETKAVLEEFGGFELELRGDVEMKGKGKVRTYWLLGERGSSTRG
monkey NPR1 extracellular domain expressed with a C-terminal myc-myc-hexahistidine (monkey), sequence (P16066 other isoform, or with tags, fused parts or gaps): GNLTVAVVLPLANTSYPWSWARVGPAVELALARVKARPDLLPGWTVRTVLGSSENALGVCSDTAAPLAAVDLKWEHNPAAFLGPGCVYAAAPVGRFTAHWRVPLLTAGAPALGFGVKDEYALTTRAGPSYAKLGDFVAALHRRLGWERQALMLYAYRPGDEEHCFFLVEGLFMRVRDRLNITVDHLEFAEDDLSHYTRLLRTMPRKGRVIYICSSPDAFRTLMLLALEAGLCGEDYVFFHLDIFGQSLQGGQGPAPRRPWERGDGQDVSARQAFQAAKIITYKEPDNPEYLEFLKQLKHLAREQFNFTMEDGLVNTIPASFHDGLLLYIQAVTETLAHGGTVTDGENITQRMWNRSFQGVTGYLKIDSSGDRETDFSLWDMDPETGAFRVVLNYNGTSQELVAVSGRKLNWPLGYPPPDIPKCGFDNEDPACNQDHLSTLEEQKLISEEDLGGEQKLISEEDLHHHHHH
human NPR1 extracellular domain expressed with a C-terminal myc-myc-hexahistidine (human), sequence (P16066 other isoform, or with tags, fused parts or gaps): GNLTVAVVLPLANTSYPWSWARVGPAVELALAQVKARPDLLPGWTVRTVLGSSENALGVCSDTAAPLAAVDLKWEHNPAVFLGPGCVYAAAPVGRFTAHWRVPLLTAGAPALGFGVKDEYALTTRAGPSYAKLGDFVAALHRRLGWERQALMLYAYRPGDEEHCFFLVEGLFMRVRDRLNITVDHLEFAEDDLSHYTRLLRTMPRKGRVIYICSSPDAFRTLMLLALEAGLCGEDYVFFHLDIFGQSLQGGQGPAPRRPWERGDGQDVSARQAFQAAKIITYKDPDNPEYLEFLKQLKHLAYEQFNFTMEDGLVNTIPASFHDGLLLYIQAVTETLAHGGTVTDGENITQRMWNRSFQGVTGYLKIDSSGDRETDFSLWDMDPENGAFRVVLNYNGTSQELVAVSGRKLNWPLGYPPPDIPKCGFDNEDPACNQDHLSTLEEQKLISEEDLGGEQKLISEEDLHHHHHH
mouse NPR1 extracellular domain expressed with a C-terminal myc-myc-hexahistidine (mouse), sequence (P18293 other isoform, or with tags, fused parts or gaps): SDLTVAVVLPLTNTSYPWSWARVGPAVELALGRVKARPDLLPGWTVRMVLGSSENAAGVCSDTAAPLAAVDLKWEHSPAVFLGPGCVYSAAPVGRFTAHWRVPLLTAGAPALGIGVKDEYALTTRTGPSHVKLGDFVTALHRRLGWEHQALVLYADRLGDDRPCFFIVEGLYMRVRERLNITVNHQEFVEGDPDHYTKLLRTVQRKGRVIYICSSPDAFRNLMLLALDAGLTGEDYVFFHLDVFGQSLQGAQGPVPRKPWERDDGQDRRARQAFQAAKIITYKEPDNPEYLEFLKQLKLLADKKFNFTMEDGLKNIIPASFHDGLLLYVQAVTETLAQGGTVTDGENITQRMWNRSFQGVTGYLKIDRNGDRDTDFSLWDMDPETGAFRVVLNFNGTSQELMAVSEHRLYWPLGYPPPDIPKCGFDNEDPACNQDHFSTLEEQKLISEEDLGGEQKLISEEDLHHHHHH
pig NPR1 extracellular domain expressed with a C-terminal myc-myc-hexahistidine (pig), sequence (chain, as listed by the source limits assumed): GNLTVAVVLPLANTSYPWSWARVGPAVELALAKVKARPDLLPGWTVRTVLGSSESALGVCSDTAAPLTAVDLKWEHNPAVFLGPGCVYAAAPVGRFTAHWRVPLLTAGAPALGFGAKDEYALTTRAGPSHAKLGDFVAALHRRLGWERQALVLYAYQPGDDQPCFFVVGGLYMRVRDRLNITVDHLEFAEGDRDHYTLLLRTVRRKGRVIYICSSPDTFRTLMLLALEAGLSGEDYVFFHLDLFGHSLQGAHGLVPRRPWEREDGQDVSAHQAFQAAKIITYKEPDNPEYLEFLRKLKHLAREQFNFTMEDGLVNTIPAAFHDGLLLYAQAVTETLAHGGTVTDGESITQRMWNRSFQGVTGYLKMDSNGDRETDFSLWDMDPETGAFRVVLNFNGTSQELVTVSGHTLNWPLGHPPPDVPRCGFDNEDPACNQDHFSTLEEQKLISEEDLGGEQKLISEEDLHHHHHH
dog NPR1 extracellular domain expressed with a C-terminal myc-myc-hexahistidine (dog), sequence (chain, as listed by the source limits assumed): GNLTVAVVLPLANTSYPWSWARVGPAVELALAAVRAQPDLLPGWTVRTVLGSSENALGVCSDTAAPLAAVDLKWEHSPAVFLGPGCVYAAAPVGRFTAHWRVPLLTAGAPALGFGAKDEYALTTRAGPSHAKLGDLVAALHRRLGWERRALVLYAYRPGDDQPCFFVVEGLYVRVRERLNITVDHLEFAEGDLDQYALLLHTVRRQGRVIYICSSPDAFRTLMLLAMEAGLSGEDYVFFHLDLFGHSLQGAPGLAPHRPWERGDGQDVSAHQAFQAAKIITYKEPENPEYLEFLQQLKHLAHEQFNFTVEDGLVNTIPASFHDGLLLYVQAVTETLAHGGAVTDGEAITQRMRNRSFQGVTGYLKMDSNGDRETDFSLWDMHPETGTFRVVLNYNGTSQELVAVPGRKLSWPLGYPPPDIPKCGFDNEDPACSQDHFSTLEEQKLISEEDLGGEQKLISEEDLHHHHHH
hNPR1-MMH in the presence of hANP (receptor-ligand complex) (human), sequence (P01160 124-151 limits assumed, chain 2 of 2): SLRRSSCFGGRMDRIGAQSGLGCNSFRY

40 nM Ag Bound (RU) [1]: 0 RU | 40 nM Ag Bound (RU) [2]: 0 RU | 40 nM Ag Bound (RU) [3]: 0 RU | 40 nM Ag Bound (RU) [4]: 0 RU | 40 nM Ag Bound (RU) [5]: 0 RU | 40 nM Ag Bound (RU) [6]: 0 RU | Max inh., %, cGMP accumulation assay, with 0.2 nM ANP [7]: -1% | Max inh., %, cGMP accumulation assay, with 0.7 nM BNP [7]: -9% | 30 nM Ag Bound (RU) [8]: 1 RU | 30 nM Ag Bound (RU) [9]: 2 RU | 40 nM Ag Bound (RU) [10]: 1 RU | 40 nM Ag Bound (RU) [11]: 0 RU | 40 nM Ag Bound (RU) [12]: 0 RU | 40 nM Ag Bound (RU) [13]: 0 RU | 40 nM Ag Bound (RU) [14]: 0 RU | 40 nM Ag Bound (RU) [15]: 0 RU | 30 nM Ag Bound (RU) [16]: 2 RU | 30 nM Ag Bound (RU) [17]: 2 RU
Substance: Isotype control (antibody)
Max Kill, %, secondary ADC mediated cytotoxicity, no ligand [7]: 0.01% | Max Kill, %, secondary ADC mediated cytotoxicity, with 100 nM ANP [7]: -4% | Max Kill, %, secondary ADC mediated cytotoxicity, with 100 nM BNP [7]: 0.5%
